The values below come from patent publication US20230399374A1, “Compounds, Compositions and Methods of Use to Treat Bone Fractures” (PURDUE RESEARCH FOUNDATION, priority 2020, published 2023).

Non-standard residues stand in square brackets, D forms with d. Residues, ends and D or L forms follow the SMILES beside them. No end group written: not given here. *: point of attachment. X2 = CC1(C)C(/C=C/C2=C(Oc3ccc(CCNC(=O)CCN4C(=O)CC(*)C4=O)cc3)C(=C/C=C3/N(CCCCS(=O)(=O)O)c4ccc(S(=O)(=O)O)cc4C3(C)C)/CCC2)=[N+](CCCCS(=O)(=O)O)c2ccc(S(=O)(=O)O)cc21; Fmoc = O=C(OCC1c2ccccc2-c2ccccc21)* Some results are limits rather than exact numbers.

The conditions of data set [1]: mouse, in vivo, iv. As for the experimental part:
(§1) All animal experiments were performed in accordance with protocols approved by Purdue University's Institutional Animal Care and Use Committee (IACUC).

For another data set, the system named is midshaft femur fractures. Particulars: mouse, in vivo.
A short description of data set [2]: Serum calcium after 21 days of treatment (QuantiChrom Calcium Assay). In kind it is in vivo, Swiss Webster mouse. Conditions: FIG. 25. An excerpt: In some instances, using a targeted anabolic described herein (e.g., as opposed to free anabolics) is beneficial for treating bone fracture, such as, for example, because targeted anabolics hereof can limit the effects on the regulation of calcium metabolism that occurs in the kidneys for parathyroid hormones.
For quantitative determination of calcium ion (Ca^2+) and evaluation of drug effects on calcium metabolism, the QuantiChrom Calcium Assay Kit from BioAssay Systems (Hayward, CA) was used. A phenolsulfonphthalein dye in the kit specifically forms a very stable, blue-colored complex with free calcium. The intensity of the color, measured at 612 nm, is directly proportional to the calcium concentration in the sample. […] The serum was removed from the cell pellet and stored at −80° C. until calcium concentration quantification. […] After that, the samples were incubated for 3 minute at room temperature and optical density at 570-650 nm (peak absorbance at 612 nm) was read to obtain the ODSAMPLE. […] The plate was tapped to mix and optical density was measured at the same wavelength to get ODSTANDARD. […] Optical density was read at the same wavelength measurement to get ODBLANK. […]
where ODSAMPLE, ODBLANK, and ODSTANDARD are the OD readings of the Sample, Sample Blank, and the Sample plus Standard respectively; 10 is the concentration of the standard in mg/dL, and n is the sample dilution factor. […]

Data set [3] is described as follows: Half-life of S0456 near-IR dye conjugates at the fracture site. Particulars: female, ND-4 Swiss-Webster, mouse, in vivo, sc, 250 nmol/mouse. As for the experimental part:
as §1

Experimental for midshaft femur fractures: To explore the impact of peptide branching on payload targeting, the abilities of acidic oligo-aspartic acids constructed of either two chains of 5 aspartic acids each or a single linear chain of 10 aspartic acids to deliver the CK2.3 payload to fracture surfaces were compared. […] The biodistributions were determined 18 hours post-injection into ND-4 Swiss-Webster mice (n=5) bearing midshaft femur fractures 10 days post-fracture.
The biodistributions were determined 18 hours post-injection into ND-4 Swiss-Webster mice (n=5) bearing midshaft femur fractures 10 days post-fracture.
The biodistributions were determined 18 hours post-injection (e.g., into ND-4 Swiss-Webster mice (n=5) bearing midshaft femur fractures 10 days post-fracture).
In some instances, the biodistribution is determined 18 hours post-injection (e.g., into ND-4 Swiss-Webster mice (n=5) bearing midshaft femur fractures 10 days post-fracture).
The biodistribution was determined 18 hours post-injection (e.g., into ND-4 Swiss-Webster mice (n=5) bearing midshaft femur fractures 10 days post-fracture). In some instances, the accumulation of the labeled compounds in the fractured femurs are reported as a percent of the injected dose per gram of tissue. […]

As to `N[C@@H](Cc1ccc(O)c(I)c1)C(=O)N[C@@H](CSC1CC(=O)N(CCC(=O)N[C@@H](CC(=O)O)C(=O)N[C@@H](CC(=O)O)C(=O)N[C@@H](CC(=O)O)C(=O)N[C@@H](CC(=O)O)C(=O)N[C@@H](CC(=O)O)C(=O)N[C@@H](CC(=O)O)C(=O)N[C@@H](CC(=O)O)C(=O)N[C@@H](CC(=O)O)C(=O)O)C1=O)C(=O)O` (stereo partly shown) [octa-aspartic acid] (HELM PEPTIDE1{[N[C@@H](Cc1ccc(O)c(I)c1)C(=O)N[C@@H](CSC1CC(=O)N(CCC(=O)[*:2])C1=O)C(=O)O].D.D.D.D.D.D.D.D}$$$$V2.0), the selectivity ratio in data set [1] is 11.2. Turning to RQIKIWFQNRRMKWKKIPVGESLKDLIDQC [CK2.3], the “fracture targetability of payloads coupled to (L)Asp10 (in words)” value in the data set with midshaft femur fractures is recorded as “displayed no reduction in fracture accumulation”.

Take “SVSEIQLMHNLGKHLNSMERVEWLRKKLQDVHNFVALGAPLAPRDA[dE][dE][dE][dE][dE][dE][dE][dE][dE][dE] [SEQ ID NO: 13]”: the “blood (serum) calcium” value in data set [2] is listed as “did not increase the blood calcium significantly in comparison to the free form”.

`CC1(C)C(/C=C/C2=C(Oc3ccc(CCNC(=O)CCN4C(=O)CC(SC[C@H](NC(=O)OCC5c6ccccc6-c6ccccc65)C(=O)N[C@H](CC(=O)O)C(=O)N[C@H](CC(=O)O)C(=O)N[C@H](CC(=O)O)C(=O)N[C@H](CC(=O)O)C(=O)N[C@H](CC(=O)O)C(=O)N[C@H](CC(=O)O)C(=O)N[C@H](CC(=O)O)C(=O)N[C@H](CC(=O)O)C(=O)N[C@H](CC(=O)O)C(=O)N[C@H](CC(=O)O)C(=O)O)C4=O)cc3)C(=C/C=C3/N(CCCCS(=O)(=O)O)c4ccc(S(=O)(=O)O)cc4C3(C)C)/CCC2)=[N+](CCCCS(=O)(=O)O)c2ccc(S(=O)(=O)O)cc21` (stereo partly shown) [(D)Asp10] (Fmoc-C(X2)[dD][dD][dD][dD][dD][dD][dD][dD][dD][dD]-OH) yielded a half-life in data set [3] above 100 h.

A word on the half-life: it is the time in which the quantity being followed falls by half. A lower half-life goes with rapid decline.
